Target: PTEN (WT), recombinant insect-cell purified (UniProt P60484)
Test: SPR

fold decrease in affinity against P-Rex2 (WT) [fold]	Substance
4	P-Rex2 (674-683) P-Rex1 sequence-swap mutant
7	P-Rex2 (904-912) P-Rex1 sequence-swap mutant
6	P-Rex2 (922-931) P-Rex1 sequence-swap mutant
